Reference: PMC6971206

Tests used:
[1] = biological target: bc1 complex (Complex III), dimer (S. cerevisiae (endogenous in BY4741 mitochondria)) (UniProt P07256); test: native gel or EMSA; BN-PAGE (3-12% NativePage Bis-Tris) of mitochondria solubilised in 2% digitonin, then Western blot or second-dimension SDS-PAGE and immuno decoration; comigration; cells grown in YPGal, YPD or YPG; wild type, rcf1Δ, rcf2Δ and truncation strains
[2] = biological target: respiratory supercomplexes (III2IV and III2IV2) of bc1 complex and cytochrome c oxidase (S. cerevisiae (endogenous in BY4741 mitochondria)) (UniProt P07256); test: as above

fold change of the share residing in supercomplexes, YPG against YPD [1] | fold change of the share residing in supercomplexes, YPG against YPD [2] | Molecule
1.4 fold | – | cytochrome c oxidase (Complex IV), monomeric (from UniProt P00401 1-534; P00410 16-251; P00420 1-269; P04037 26-155; P00424 21-153; P00427 41-148; Q01519 1-83; P32799 10-129)
– | 3.7 fold | Rcf2 (respiratory supercomplex factor 2) (natural protein) MKILTQDEIEAHRSHTLKGGIEGALAGFAISAIIFKVLPRRYPKFKPSTLTWSIKTALWITPPTVLTAICAEEASNNFDATMYGSGSSSEDALDEHRRWKSLSTKDKFVEGLSNNKYKIITGAWAASLYGSWVIVNKDPIMTKAQKIVQARMYAQFITVGLLLASVGLSMYENKLHPNKQKVNEMRRWENALRVAEEEERLEKEGRRTGYVSNEERINSKIFKS
– | 2.5 fold | Rcf1 (respiratory supercomplex factor 1) (natural protein) MSRMPSSFDVTERDLDDMTFGERIIYHCKKQPLVPIGCLLTTGAVILAAQNVRLGNKWKAQYYFRWRVGLQAATLVALVAGSFIYGTSGKELKAKEEQLKEKAKMREKLWIQELERREEETEARRKRAELARMKTLENEEEIKNLEKELSDLENKLGKK
